From US20190241654A1 (published 2019)
Positions count from the first letter of the chain named. Where “and” joins values, the source holds several entries; their conditions need not be identical. Identical values can stand only once.

B1: Ab1119/Ab480 (antibody, V domains shown)
VH: QMQLVQSGAEVKKPGSSVKVSCKASGFNIKDYYLHWVRQAPGKGLEWMGWIDPDQGDTEYAQKFQGRVTITRDRSTSTAYMELRSLRAEDTAVYYCNAAYGSSSYPMDYWGQGTLVTVSS
VL: NIQMTQSPSSLSASVGDRVTITCRASQDIHRYLSWFQQKPGKVPKHLIYRANRLVSGVPSRFSGSGSGTEFTLTISSLQPEDFATYYCLQYDEFPYTFGGGTKVEIK
notes: Variant of AbParental; also called LC Ab1119 / HC Ab480
B2: AbParental (parental anti-CD47 antibody) (antibody, human IgG4 S228P, kappa, V domains shown)
VH: B1 VH with P14T, K43Q, G44A, G66D, T76M, R84S, A88S, V93M, L115T
VL: NIQMTQSPSAMSASVGDRVTITCKASQDIHRYLSWFQQKPGKVPKHLIYRANRLVSGVPSRFSGSGSGTEFTLTISSLQPEDFATYYCLQYDEFPYTFGGGTKVEIKR
notes: also called Parental LC-HC; parental antibody
B3: Ab480/Ab1127 (antibody, V domains shown)
VH: B1 VH
VL: B1 VL with A51E, N52S, L54F, S56D
notes: FR and CDR L2 variant; Label printed HC first; r460 used; also called HC Ab480 / LC Ab1127
B4: Ab356/Ab1122 (antibody, V domains shown)
VH: B1 VH with L115T
VL: B1 VL with A51Y, N52E, L54F, S56D
notes: FR and CDR L2 variant; Label printed HC first; r445 used; also called HC Ab356 / LC Ab1122
B5: Ab356/Ab1127 (antibody, V domains shown)
VH: B1 VH with L115T
VL: B1 VL with A51E, N52S, L54F, S56D
notes: FR and CDR L2 variant; Label printed HC first; r460 used; also called HC Ab356 / LC Ab1127
B6: Ab1119/Ab387 (antibody, V domains shown)
VH: B1 VH with A88S
VL: B1 VL
notes: Variant of AbParental; also called LC Ab1119 / HC Ab387
B7: Ab1119/Ab170 (antibody, V domains shown)
VH: B1 VH with A88S, L115T
VL: B1 VL
notes: Variant of AbParental; also called LC Ab1119 / HC Ab170
B8: Ab480/Ab1121 (antibody, V domains shown)
VH: B1 VH
VL: B1 VL with A51Y, N52I, L54F, S56D
notes: FR and CDR L2 variant; Label printed HC first; r442 used; also called HC Ab480 / LC Ab1121
B9: Ab495/Ab480 (antibody, V domains shown)
VH: B1 VH
VL: B1 VL with R24K, F36Y, V43A
notes: also called LC Ab495 / HC Ab480
B10: Ab495/Ab356 (antibody, V domains shown)
VH: B1 VH with L115T
VL: B1 VL with R24K, F36Y, V43A
notes: also called LC Ab495 / HC Ab356
B11: Ab356/Ab1120 (antibody, V domains shown)
VH: B1 VH with L115T
VL: B1 VL with A51Y, N52V, L54F, S56D
notes: FR and CDR L2 variant; also called HC Ab356 / LC Ab1120
B12: Ab480/Ab1122 (antibody, V domains shown)
VH: B1 VH
VL: B1 VL with A51Y, N52E, L54F, S56D
notes: FR and CDR L2 variant; Label printed HC first; r445 used; also called HC Ab480 / LC Ab1122
B13: Ab1119/Ab356 (antibody, V domains shown)
VH: B1 VH with L115T
VL: B1 VL
notes: Variant of AbParental; also called LC Ab1119 / HC Ab356
B14: Ab482/Ab387 (antibody, V domains shown)
VH: B1 VH with A88S
VL: B1 VL with L11M, R24K
notes: FR variant of AbParental; also called LC Ab482 / HC Ab387
B15: Ab356/Ab1121 (antibody, V domains shown)
VH: B1 VH with L115T
VL: B1 VL with A51Y, N52I, L54F, S56D
notes: FR and CDR L2 variant; Label printed HC first; the entry in numeric order (r442) is used; also called HC Ab356 / LC Ab1121
B16: Ab480/Ab1120 (antibody, V domains shown)
VH: B1 VH
VL: B1 VL with A51Y, N52V, L54F, S56D
notes: FR and CDR L2 variant; Label printed HC first although the head says LC/HC; also called HC Ab480 / LC Ab1120
B17: Ab356/Ab1120 (HC Ab356, LC Ab1120) anti-CD47 antibody (antibody, V domains shown)
VH: B1 VH with L115T
VL: B1 VL with A51Y, N52V, L54F, S56D
notes: FR and CDR L2 variant of AbParental
B18: Ab356/Ab1122 (HC Ab356, LC Ab1122) anti-CD47 antibody (antibody, V domains shown)
VH: B1 VH with L115T
VL: B1 VL with A51Y, N52E, L54F, S56D
notes: FR and CDR L2 variant of AbParental; The label order is HC/LC although the head says 'LC/HC'; r445 is used
B19: Ab480/Ab1120 (HC Ab480, LC Ab1120) anti-CD47 antibody (antibody, V domains shown)
VH: B1 VH
VL: B1 VL with A51Y, N52V, L54F, S56D
notes: as for B17
B20: Ab356/Ab1127 (HC Ab356, LC Ab1127) anti-CD47 antibody (antibody, V domains shown)
VH: B1 VH with L115T
VL: B1 VL with A51E, N52S, L54F, S56D
notes: FR and CDR L2 variant of AbParental; The label order is HC/LC although the head says 'LC/HC'; r460 is used
B21: Ab356/Ab1129 (HC Ab356, LC Ab1129) anti-CD47 antibody (antibody, V domains shown)
VH: B1 VH with L115T
VL: B1 VL with A51H, N52I, L54F, S56D
notes: FR and CDR L2 variant of AbParental; The label order is HC/LC although the head says 'LC/HC'; r466 is used
B22: Ab480/Ab1121 (HC Ab480, LC Ab1121) anti-CD47 antibody (antibody, V domains shown)
VH: B1 VH
VL: B1 VL with A51Y, N52I, L54F, S56D
notes: FR and CDR L2 variant of AbParental; The label order is HC/LC although the head says 'LC/HC'; r442 is used
B23: Ab356/Ab1121 (HC Ab356, LC Ab1121) anti-CD47 antibody (antibody, V domains shown)
VH: B1 VH with L115T
VL: B1 VL with A51Y, N52I, L54F, S56D
notes: FR and CDR L2 variant of AbParental; The label order is HC/LC although the head says 'LC/HC'; the row in running number order (r442) is used
B24: Ab480/Ab1127 (HC Ab480, LC Ab1127) anti-CD47 antibody (antibody, V domains shown)
VH: B1 VH
VL: B1 VL with A51E, N52S, L54F, S56D
notes: as for B20
B25: Ab480/Ab1122 (HC Ab480, LC Ab1122) anti-CD47 antibody (antibody, V domains shown)
VH: B1 VH
VL: B1 VL with A51Y, N52E, L54F, S56D
notes: as for B18

Target: T1, recombinant extracellular domain of CD47 (UniProt Q08722 19-139, limits assumed)
T1 construct: extracellular domain; Analyte flowed over the captured antibodies in SPR; also called CD47-ECD
T1 sequence (Q08722 19-139 limits assumed): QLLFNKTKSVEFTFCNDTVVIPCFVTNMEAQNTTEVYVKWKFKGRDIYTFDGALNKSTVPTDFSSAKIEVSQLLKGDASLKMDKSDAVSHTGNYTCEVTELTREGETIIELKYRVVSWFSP
Assay: SPR; antibody captured on anti-human Fc, CD47-ECD flowed 0-100 nM; 1:1 Langmuir
Method: The binding kinetics of anti-CD47 antibodies to the recombinant extracellular domain of CD47 were determined by using surface Plasmon resonance (SPR, MASS-1, Sierra Sensors; T200, Biacore, GE Healthcare Life Sciences). Anti-human Fc (P/N: BR-1008-39 (GE Healthcare Life Sciences)) was immobilized on a High Capacity Amine chip (P/N: SPR-AS-HCA, Sierra sensors) or CM5-S Chip (GE Healthcare Life Sciences). CD47 antibodies were captured on Human IgG FC and CD47-ECD was flowed over the surface at various concentrations ranging from zero (for double referencing) to 100 nM. In order to determine KD's, antibodies were ranked using a 1:1 Langmuir model.

Binder | Kd | koff | kon
B1 | 0.564 nM | 0.00577 s⁻¹ | 1.02e+07 M⁻¹ s⁻¹
B2 | 0.236 nM | 0.00187 s⁻¹ | 7.94e+06 M⁻¹ s⁻¹
B3 | 2.42 nM | 0.00622 s⁻¹ | 2.57e+06 M⁻¹ s⁻¹
B4 | 77.9 nM | 0.00411 s⁻¹ | 22800 M⁻¹ s⁻¹
B5 | 4.76 nM | 0.0106 s⁻¹ | 2.22e+06 M⁻¹ s⁻¹
B6 | 0.556 nM and 0.529 nM | 0.00571 s⁻¹ and 0.00552 s⁻¹ | 1.03e+07 M⁻¹ s⁻¹ and 1.04e+07 M⁻¹ s⁻¹
B7 | 0.562 nM | 0.00583 s⁻¹ | 1.04e+07 M⁻¹ s⁻¹
B8 | 1.14 nM | 0.00303 s⁻¹ | 2.67e+06 M⁻¹ s⁻¹
B9 | 1.32 nM | 0.00434 s⁻¹ | 3.29e+06 M⁻¹ s⁻¹
B10 | 1.36 nM | 0.00426 s⁻¹ | 3.13e+06 M⁻¹ s⁻¹
B11 | 1.02 nM | 0.00274 s⁻¹ | 2.69e+06 M⁻¹ s⁻¹
B12 | 4.68 nM | 0.0109 s⁻¹ | 2.33e+06 M⁻¹ s⁻¹
B13 | 0.635 nM and 0.599 nM | 0.00647 s⁻¹ and 0.0059 s⁻¹ | 1.02e+07 M⁻¹ s⁻¹ and 9.85e+06 M⁻¹ s⁻¹
B14 | 0.553 nM | 0.00549 s⁻¹ | 9.93e+06 M⁻¹ s⁻¹
B15 | 1.08 nM | 0.00272 s⁻¹ | 2.53e+06 M⁻¹ s⁻¹
B16 | 1.05 nM | 0.00238 s⁻¹ | 2.28e+06 M⁻¹ s⁻¹

Target: T2, CD47 on CCRF-CEM cells (human, UniProt Q08722 19-323)
T2 construct: Target is CD47 carried by the CD47-positive cell line CCRF-CEM; also called Cluster of Differentiation 47; integrin-associated protein
T2 sequence (Q08722 19-323): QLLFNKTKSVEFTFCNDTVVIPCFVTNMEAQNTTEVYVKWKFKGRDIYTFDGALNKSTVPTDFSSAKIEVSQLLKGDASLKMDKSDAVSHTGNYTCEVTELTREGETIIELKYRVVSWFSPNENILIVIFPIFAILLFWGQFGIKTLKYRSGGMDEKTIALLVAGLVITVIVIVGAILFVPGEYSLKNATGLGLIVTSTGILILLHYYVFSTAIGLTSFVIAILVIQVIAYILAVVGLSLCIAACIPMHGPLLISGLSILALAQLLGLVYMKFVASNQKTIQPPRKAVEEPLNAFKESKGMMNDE
Assay: flow cytometry on antibody-opsonized CCRF-CEM cells, anti-human Alexa 647 secondary, median fluorescence, sigmoidal fit; Donor 1
Method: (§1) Phagocytosis was assayed by serum starving the macrophages in incomplete AIM V media for two hours. During this incubation period, target cells (CCRF-CEM) from two donors (donor 1 and donor 2) were labeled with CSFE (Invitrogen, #C34554) at […] for 15 minutes at room temperature. Cells were rinsed twice with PBS (Hyclone, #SH30028.02) and resuspended at 8×10⁵/mL in AIM V media. Antibody dilutions were prepared at 0.01 ug/ml to 10 ug/ml in half log dilutions and then incubated with the target cell line for 10 minutes at room temperature (a small portion is retained for flow cytometric analysis/cell binding), after which 100 μL of target cell/antibody suspension was added to the macrophage plates. Samples were treated in triplicate and with appropriate isotype controls.
(§2) Samples were incubated for 30 minutes at room temperature, rinsed 2× and then resuspended in FACS buffer and analyzed on the Attune. The EC50 values refer to the concentration that gives half the maximum binding measured as median fluorescent intensity, and was determined by non-linear fit of a sigmoidal dose response within the GraphPad Prism software.

Binder | EC50 [mg/L]
B17 | 0.17
B18 | 0.17
B19 | 0.33
B20 | 0.11
B21 | 0.16
B22 | 0.17
B23 | 0.19
B24 | 0.08
B25 | 0.16

Target: T2, CD47 on CCRF-CEM cells
Assay: cell-based or functional assay

Binder | Phagocytosis EC50 (ug/mL), Donor 1 [µg/mL] | Phagocytosis EC50 (ug/mL), Donor 2 [µg/mL]
B17 | 0.68 | 1.82
B18 | 1.07 | 1.83
B19 | 0.73 | 2.01
B20 | 0.66 | 0.96
B21 | 12.8 | –
B22 | 0.43 | 1.42
B23 | 0.48 | 1.29
B24 | 1.88 | 1.95
B25 | 1.1 | 1.84

Target: T2, CD47 on CCRF-CEM cells
Assay: flow cytometry on antibody-opsonized CCRF-CEM cells, anti-human Alexa 647 secondary, median fluorescence, sigmoidal fit; Donor 2
Method: as §1, §2

Binder | EC50 [mg/L]
B17 | 0.16
B18 | 0.22
B19 | 0.17
B20 | 0.15
B22 | 0.17
B23 | 0.16
B24 | 0.2
B25 | 0.17
